Assay results: PMC4726468, “Innovation of a Regulatory Mechanism Modulating Semi-determinate Stem Growth through Artificial Selection in Soybean”

T1: Dt2-6xHis (soybean; cultivar of the cloned CDS not …, UniProt I1N4Q7 1-253)
T1 sequence: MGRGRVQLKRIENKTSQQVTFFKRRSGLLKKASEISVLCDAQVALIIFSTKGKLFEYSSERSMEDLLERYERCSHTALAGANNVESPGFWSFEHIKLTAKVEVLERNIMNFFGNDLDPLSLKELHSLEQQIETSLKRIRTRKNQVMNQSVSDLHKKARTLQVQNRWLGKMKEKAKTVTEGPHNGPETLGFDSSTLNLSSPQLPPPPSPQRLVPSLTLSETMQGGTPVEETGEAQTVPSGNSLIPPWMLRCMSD

B1: Dt1-CArG2 (dsDNA)
DNA 1: CTTATACCAAAATAAGCAACTAAC
DNA 2: GTTAGTTGCTTATTTTGGTATAAG
B2: Dt1-CArG1 (dsDNA)
DNA 1: AATATCCAAATTTAGAAATATG
DNA 2: CATATTTCTAAATTTGGATATT
B3: Dt1-CArG5 (dsDNA)
DNA 1: TCTTTTACCAATATTGGAACTTGG
DNA 2: CCAAGTTCCAATATTGGTAAAAGA

Columns and labels:
Dt2-6xHis = target: T1, Dt2-6xHis; test: EMSA; DIG Gel Shift Kit (Roche 3353591910), manufacturer's instructions; buffer, salt, pH and temperature not stated; conditions: protein: recombinant; tags: 6xHis (pET-DEST42); chain copies: 2; label: digoxigenin; blunt
GmSOC1-6xHis = GmSOC1-6xHis (soybean; cultivar of the cloned CDS not …, UniProt A0A2K7FY55 1-209); test: as above; conditions: protein: recombinant; tags: 6xHis (pET-DEST42); chain copies: 2; label: digoxigenin; blunt
Sequence of GmSOC1-6xHis (A0A2K7FY55 entry or part of it): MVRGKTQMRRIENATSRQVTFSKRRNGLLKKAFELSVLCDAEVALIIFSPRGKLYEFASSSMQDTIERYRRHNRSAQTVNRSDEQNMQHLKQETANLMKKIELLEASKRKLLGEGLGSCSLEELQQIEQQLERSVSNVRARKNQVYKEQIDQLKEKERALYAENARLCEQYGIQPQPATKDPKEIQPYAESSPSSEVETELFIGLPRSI

Row | Binder | binding result (Dt2-6xHis) | binding result (GmSOC1-6xHis)
1 | B1 | binds | –
2 | B2 | binds | –
3 | B3 | binds | binds
